What was measured:
Assay in all cases: flow cytometry on CHO-K1 cells transiently expressing HA-tagged TIGIT mutant
[1] = target: T1, HA-tagged human TIGIT with mutation N49A, on CHO-K1 cells (human, UniProt Q495A1 22-244)
T1 sequence: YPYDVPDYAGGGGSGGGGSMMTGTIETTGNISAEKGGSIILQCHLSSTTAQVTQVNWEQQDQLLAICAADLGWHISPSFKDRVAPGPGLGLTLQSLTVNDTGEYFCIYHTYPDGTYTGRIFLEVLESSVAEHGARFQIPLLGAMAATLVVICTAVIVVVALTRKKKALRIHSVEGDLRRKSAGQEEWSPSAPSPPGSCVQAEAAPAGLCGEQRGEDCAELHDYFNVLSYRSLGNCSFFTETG
Experimental: (§1) For flow cytometry analysis of the anti-hTIGIT antibody binding epitope, HA-tagged human TIGIT proteins with or without single amino acid mutation were transiently transfected into CHO-K1 cells. After 24 hr, transfected cells were suspended in HBSS buffer (Thermo Fisher Scientific, Cat#14175095), and incubated with HuTIG1-IgG1.AA antibody at varying concentrations in 50 μL volume. After 1 hr incubation at 4° C., cells were washed and a second incubation with 50 μL Alexa488 conjugated anti-human IgG(H+L) secondary antibody (Thermo Fisher Scientific, Cat#A-11013) was performed to detect cells bound by antibody. Cells were incubated with an anti-HA antibody (Sigma, Cat# H7411) as a positive control, and non-transfected CHO-K1 cells were used as a negative control. The cells were analyzed on an Attune NxT Cytometer (Thermo Fisher Scientific) and the data were processed using FlowJo software. For each mutant, the saturating antibody binding MFI (mean fluorescence intensity) were normalized to 100% POC (percent of control), and no primary antibody binding control MFI were normalized to 0% POC. Data were then fit to a four parameter non-linear sigmoidal curve using GraphPad Prism 7 curve fitting using following formula: Y=Bottom+(Top−Bottom)/(1+10^{((Log EC}^₅₀^{-X)*HillSlope)}).
(§2) All of these residues co-locate to one discrete region on the front ([…] structure of the TIGIT IgV extracellular domain (FIG. 28).

[2] = target: T2, HA-tagged human TIGIT with mutation H90A, on CHO-K1 cells (human, UniProt Q495A1 22-244)
T2 construct: Built as for m17
T2 sequence: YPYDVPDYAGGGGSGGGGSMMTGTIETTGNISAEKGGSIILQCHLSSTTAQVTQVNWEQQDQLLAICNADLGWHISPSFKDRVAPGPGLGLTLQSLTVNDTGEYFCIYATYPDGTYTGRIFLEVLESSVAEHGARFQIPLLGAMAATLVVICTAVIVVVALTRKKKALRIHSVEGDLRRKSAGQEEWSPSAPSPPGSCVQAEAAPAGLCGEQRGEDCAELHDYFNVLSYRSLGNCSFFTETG
Experimental: as §1, §2

[3] = target: T3, HA-tagged human TIGIT with mutation N37A, on CHO-K1 cells (human, UniProt Q495A1 22-244)
T3 construct: Built as for m17
T3 sequence: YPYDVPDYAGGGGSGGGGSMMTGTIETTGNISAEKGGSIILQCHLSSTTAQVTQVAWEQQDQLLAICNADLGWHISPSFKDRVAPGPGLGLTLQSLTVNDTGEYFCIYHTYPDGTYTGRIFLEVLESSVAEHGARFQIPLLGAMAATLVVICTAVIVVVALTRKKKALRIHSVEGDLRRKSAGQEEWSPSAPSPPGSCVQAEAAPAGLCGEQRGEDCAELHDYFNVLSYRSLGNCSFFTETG
Experimental: as §1, §2

[4] = target: T4, HA-tagged human TIGIT with mutation Q35A, on CHO-K1 cells (human, UniProt Q495A1 22-244)
T4 construct: Built as for m17
T4 sequence: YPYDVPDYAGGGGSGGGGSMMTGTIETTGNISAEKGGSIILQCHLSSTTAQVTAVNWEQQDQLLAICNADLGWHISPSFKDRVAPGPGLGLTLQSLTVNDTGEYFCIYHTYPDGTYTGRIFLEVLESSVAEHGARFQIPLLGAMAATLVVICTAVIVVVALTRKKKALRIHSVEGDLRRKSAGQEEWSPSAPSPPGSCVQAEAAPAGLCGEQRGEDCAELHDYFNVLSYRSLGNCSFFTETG
Experimental: as §1, §2

Measured: fold decrease in binding affinity against wild type human TIGIT

B1: HuTIG1-IgG1.AA (humanized IgG1/kappa form of TIG1, L234A/L235A) (antibody)
heavy: not shown
light: DIQMTQSPSSLSASVGDRVTITCRASKSISKYLAWYQQKPGKAPKLLIYSGSTLQSGVPSRFSGSGSGTDFTLTISSLQPEDFATYYCQQHNEYPWTFGGGTKVEIKRTVAAPSVFIFPPSDEQLKSGTASVVCLLNNFYPREAKVQWKVDNALQSGNSQESVTEQDSKDSTYSLSSTLTLSKADYEKHKVYACEVTHQGLSSPVTKSFNRGEC
notes: Mature full chains; also called humanized TIG1
> 10 fold: all assays above

Reference: patent US20170281764A1 (JN BIOSCIENCES, published 2017)
